B1: Human papillomavirus 16 E2 (other)
chain: METLCQRLNVCQDKILTHYENDSTDLRDHIDYWKHMRLECAIYYKAREMGFKHINHQVVPTLAVSKNKALQAIELQLTLETIYNSQYSNEKWTLQDVSLEVYLTAPTGCIKKHGYTVEVQFDGDICNTMHYTNWTHIYICEEASVTVVEGQVDYYGLYYVHEGIRTYFVQFKDDAEKYSKNKVWEVHAGGQVILCPTSVFSSNEVSSPEIIRQHLANHPAATHTKAVALGTEETQTTIQRPRSEPDTGNPCHTTKLLHRDSVDSAPILTAFNSSHKGRINCNSNTTPIVHLKGDANTLKCLRYRFKKHCTLYTAVSSTWHWTGHNVKHKSAIVTLTYDSEWQRDQFLSQVKIPKTITVSTGFMSI
notes: also called HPV 16 E2; cbe_251088

One test concerns the target T1, EFEMP1 (human, UniProt Q12805 18-493).
T1 construct: also called cbe_2321057
T1 sequence: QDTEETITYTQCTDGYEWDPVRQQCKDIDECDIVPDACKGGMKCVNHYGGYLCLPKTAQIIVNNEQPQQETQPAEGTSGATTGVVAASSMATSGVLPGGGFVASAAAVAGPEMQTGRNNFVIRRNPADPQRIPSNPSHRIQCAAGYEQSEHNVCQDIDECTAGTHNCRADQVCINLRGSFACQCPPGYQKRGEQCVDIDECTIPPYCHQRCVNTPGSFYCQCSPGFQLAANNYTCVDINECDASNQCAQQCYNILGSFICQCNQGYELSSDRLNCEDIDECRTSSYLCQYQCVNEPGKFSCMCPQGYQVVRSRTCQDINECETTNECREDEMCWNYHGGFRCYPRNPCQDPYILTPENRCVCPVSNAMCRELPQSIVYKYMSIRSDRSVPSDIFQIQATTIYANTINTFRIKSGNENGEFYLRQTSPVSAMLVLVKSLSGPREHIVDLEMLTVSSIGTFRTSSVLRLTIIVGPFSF
The experiment in a line: Y2H; INT ID 147.

In test [1] the target is T2, Human Papillomavirus 1a L2 (Human Papillomavirus 1a, UniProt P03105 1-507).
T2 construct: also called HPV 1a L2; cbe_252041
T2 sequence: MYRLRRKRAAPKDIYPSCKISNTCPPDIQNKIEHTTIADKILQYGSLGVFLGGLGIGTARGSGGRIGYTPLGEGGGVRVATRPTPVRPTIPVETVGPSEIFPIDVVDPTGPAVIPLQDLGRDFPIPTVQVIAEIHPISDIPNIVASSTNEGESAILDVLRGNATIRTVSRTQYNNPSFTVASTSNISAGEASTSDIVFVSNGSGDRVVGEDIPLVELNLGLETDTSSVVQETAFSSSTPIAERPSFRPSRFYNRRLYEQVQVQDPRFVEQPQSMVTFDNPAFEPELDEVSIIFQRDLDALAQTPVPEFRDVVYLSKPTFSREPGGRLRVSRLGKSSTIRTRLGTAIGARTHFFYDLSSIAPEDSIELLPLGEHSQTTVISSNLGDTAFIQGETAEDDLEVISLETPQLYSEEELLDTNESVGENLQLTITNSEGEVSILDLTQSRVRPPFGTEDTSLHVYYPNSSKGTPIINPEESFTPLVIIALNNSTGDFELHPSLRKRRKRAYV
The experiment in a line: Y2H; INT ID 146.

Test [2] concerns the target T3, Human papillomavirus 16 E7 (Human papillomavirus 16, UniProt P03129 1-98).
T3 construct: also called HPV 16 E7; HPV16 E7
T3 sequence: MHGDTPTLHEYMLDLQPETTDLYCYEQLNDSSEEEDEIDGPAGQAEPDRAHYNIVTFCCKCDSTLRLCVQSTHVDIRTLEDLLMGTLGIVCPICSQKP
The experiment in a line: Y2H; INT ID 169.

The target of test [3] is B1. The experiment in a line: Y2H; INT ID 151.
The target in test [4] is B1. The experiment in a line: Y2H; INT ID 150.

For the molecule B1, the binding result (with EFEMP1; in test [1]) was “binds” each time.

B2: eukaryotic translation elongation factor 1 alpha 1-like 14 (other)
chain: MQSERGITIDISLWKFETSKYYVTIIDAPGHRDFIQNMITGTSQADCAVLIVAAGVGEFEAGISKNGQTREHALLAYTLGVKQLIVGVNKMDSTEPPYSQKRYEEIVKEVSTYIKKIGYNPDTVAFVPISGWNGDNMLEPSANMPWFKGWKVTRKDGNASGTTLLEALDCILPPTRPTDKPLGLPLQDVYKIGGIGTVPVGRVETGVLKPGMVVTFGPVNVTTEVKSVEMHHEALGEALPGDNVGFNVKNVSVKDVRRGNVAGDSKNDPPMEAAGFPAQVIILNHPGQISAGYAPVLDCHTAHIACKFAELKEKIDRRSGKKLEDGPKFLKSGDAAIVDMVPGKPMCVESFSDYPPLGCFAVRDMRQTVAVGVIKAVDKKAAGAGKVTKSAQKAQKAK
notes: also called EEF1A1L14; cbe_3773649
On to B2, for which, in test [2], the binding result is reported as “binds”.

B3: soggy-1 gene (other)
chain: APIHDADAQESSLGLTGLQSLLQGFSRLFLKGNLLRGIDSLFSAPMDFRGLPGNYHKEENQEHQLGNNTLSSHLQIDKMTDNKTGEVLISENVVASIQPAEGSFEGDLKVPRMEEKEALVPIQKATDSFHTELHPRVAFWIIKLPRRRSHQDALEGGHWLSEKRHRLQAIRDGLRKGTHKDVLEEGTESSSHSRLSPRKTHLLYILRPSRQL
notes: also called DKKL1-pending; cbe_4279962
As to B3, the binding result in test [3] was “binds”.

B4: DAD1 (other)
chain: SASVVSVISRFLEEYLSSTPQRLKLLDAYLLYILLTGALQFGYCLLVGTFPFNSFLSGFISCVGSFILAVCLRIQINPQNKADFQGISPERAFADFLFASTILHLVVMNFVG
notes: also called cbe_4268208
On to B4, for which, in test [4], the binding result is reported as “binds”.

Values taken from US20050100554A1 (published 2005).
